Results taken from publication PMC10626209.

Assays:
[1] = biological target: GFP-tagged SHROOM2 ASD2 domain (mouse protein 1,178–1,488 aa) (mouse); assay: SPR
[2] = biological target: preformed SHROOM2:ROCK1 complex (mouse | human) (UniProt Q13464); assay: SPR

| Substance | Kd [1] [nM] | fold higher affinity than for the single domain (printed: ROCK1 alone) [2] [fold] |
| --- | --- | --- |
| GST-tagged ROCK1 SBD domain (834–913 aa) (from UniProt Q13464 834-913) (domain or fragment) | 1000 | – |
| GST-tagged SCRIB C-terminal fragment (1,478–1,630) (from UniProt Q14160 1478-1630) (domain or fragment) | 960 | 5 |
